From the FLAb antibody collection (doi:10.7554/elife.23156)

B1: scFv; the commonest letter at each place (parent)
chain 1: EVKLDETGGGLVQPGRPMKLSCVASGFTFSDYWMNWVRQSPEKGLEWVAQIRNKPYNYETYYSDSVKGRFTISRDDSKSSVYLQMNNLRVEDMGIYYCTGSYYGMDYWGQGTSVTVS
chain 2: DVVMTQTPLSLPVSLGDQASISCRSSQSLVHSNGNTYLRWYLQKPGQSPKVLIYKVSNRFSGVPDRFSGSGSGTDFTLKISRVEAEDLGVYFCSQSTHVPWTFGGGTKLEIK

Tests used:
fluorescein = variants of: B1; test: Kd (Tite-Seq); conditions: with fluorescein; format: scFv 4-4-20, heavy + light
[1] = variants of: B1; test: yeast surface expression (ratio to wild type); higher = more expressed; conditions: format: scFv 4-4-20, heavy + light

Row | Kd (fluorescein) | Variant | yeast surface expression [1]
1 | ≥ 10 µM | chain 1 D31S V37N | 0.629
2 | ≥ 10 µM | chain 1 G100I G104W | 0.449
3 | ≥ 10 µM | chain 1 G104W G109E | 0.167
4 | 9.02 µM | chain 1 D31W W33G | 0.542
5 | ≥ 10 µM | chain 1 T28L N35D W36N | 0.674
6 | ≥ 10 µM | chain 1 G100V Y107M | 0.726
7 | ≥ 10 µM | chain 1 F29M W33C | 0.983
8 | ≥ 10 µM | chain 1 Y107F G109N | 0.555
9 | 0.0162 µM | chain 1 S30K N35G | 1.03
10 | ≥ 10 µM | chain 1 S30D W36V V37L | 0.433
11 | ≥ 10 µM | chain 1 T28C W33L | 0.742
12 | 0.945 µM | chain 1 M105F | 0.745
13 | ≥ 10 µM | chain 1 Y102R Y107N | 0.81
14 | ≥ 10 µM | chain 1 Y102C M105P | 0.69
15 | 0.00215 µM | chain 1 Y107T W108A | 0.476
16 | ≥ 10 µM | chain 1 G100V S101N | 0.787
17 | ≥ 10 µM | chain 1 S30H D31I | 0.573
18 | ≥ 10 µM | chain 1 G104E D106A | 0.657
19 | ≥ 10 µM | chain 1 M34I N35W | 0.41
20 | 3.74 µM | chain 1 D31C W33K | 0.675
21 | 0.00361 µM | chain 1 G109S | 0.826
22 | ≥ 10 µM | chain 1 G109R | 0.297
23 | ≥ 10 µM | chain 1 G109T | 0.551
24 | ≥ 10 µM | chain 1 G104E | 1.04

Row | Kd (fluorescein) | Variant | yeast surface expression [1]
25 | ≥ 10 µM | chain 1 G104K | 0.557
26 | 0.0808 µM | chain 1 M105Q D106S | 1.17
27 | ≥ 10 µM | chain 1 S101C G109A | 0.363
28 | 0.02 µM | chain 1 Y103C M105L | 0.641
29 | ≥ 10 µM | chain 1 S101K Y103R | 0.714
30 | ≥ 10 µM | chain 1 Y107D W108Q | 0.706
31 | 0.0507 µM | chain 1 S30F Y32H | 0.679
32 | ≥ 10 µM | chain 1 Y32E M34I | 0.733
33 | 5.96 µM | chain 1 F29V V37G | 0.65
34 | ≥ 10 µM | chain 1 Y103G M105S | 0.983
35 | ≥ 10 µM | chain 1 G100E W108G G109H | 0.242
36 | ≥ 10 µM | chain 1 G104K W108Q | 0.294
37 | ≥ 10 µM | chain 1 Y103I D106W | 0.188
38 | ≥ 10 µM | chain 1 F29N W36L | 0.472
39 | ≥ 10 µM | chain 1 M34L W36V | 0.558
40 | ≥ 10 µM | chain 1 T28N V37Y | 1.05
41 | ≥ 10 µM | chain 1 S101A Y102P | 0.793
42 | ≥ 10 µM | chain 1 S101L Y103Q | 0.786
43 | ≥ 10 µM | chain 1 G104C M105I | 0.349
44 | ≥ 10 µM | chain 1 W33C M34C W36A | 0.449
45 | 0.0015 µM | chain 1 W36F | 0.954
46 | 0.0259 µM | chain 1 W36M | 0.721
47 | ≥ 10 µM | chain 1 W36E | 0.765

More lines, now with the values behind:

Row | Variant | Kd (fluorescein) | yeast surface expression [1]
48 | chain 1 Y102S G109L | ≥ 10 µM | 0.228
49 | chain 1 W33M M34P | ≥ 10 µM | 0.576
50 | chain 1 S30N N35W | ≥ 10 µM | 0.529
51 | chain 1 T28L S30Y | 0.00184 µM | 0.738
52 | chain 1 S101H D106C | ≥ 10 µM | 0.467
53 | chain 1 S101M G109W | ≥ 10 µM | 0.231
54 | chain 1 Y32I N35P | ≥ 10 µM | 0.0981
55 | chain 1 D31R Y32D | ≥ 10 µM | 0.643
56 | chain 1 Y107F G109E | ≥ 10 µM | 0.259
57 | chain 1 M34K N35S | ≥ 10 µM | 1.46
58 | chain 1 S30T M34I | 0.00493 µM | 0.678
59 | chain 1 F29L M34K W36P | 0.228 µM | 0.61
60 | chain 1 D106T W108Q | ≥ 10 µM | 0.5
61 | chain 1 G100N Y107V | ≥ 10 µM | 0.691
62 | chain 1 G104I W108D | ≥ 10 µM | 0.236
63 | chain 1 F29K S30A W36A | 0.0767 µM | 0.756
64 | chain 1 T28Y Y32K | ≥ 10 µM | 0.818
65 | chain 1 G100N D106Y | ≥ 10 µM | 0.146
66 | chain 1 W33I V37S | ≥ 10 µM | 0.617
67 | chain 1 G100P G104H | ≥ 10 µM | 0.68
68 | chain 1 Y107S W108D | ≥ 10 µM | 0.322
69 | chain 1 M105K | 0.00546 µM | 1.02
70 | chain 1 M105S | ≥ 10 µM | 0.889

Row | Variant | Kd (fluorescein) | yeast surface expression [1]
71 | chain 1 M105Q | 0.0423 µM | 1.23
72 | chain 1 M105N D106P | ≥ 10 µM | 0.2
73 | chain 1 S101H Y103Q | ≥ 10 µM | 0.871
74 | chain 1 T28A W33R M34S | ≥ 10 µM | 1.12
75 | chain 1 T28P | 0.000743 µM | 0.989
76 | chain 1 T28N | 0.00121 µM | 0.895
77 | chain 1 T28V | 0.00128 µM | 1
78 | chain 1 M34K W36M | ≥ 10 µM | 0.273
79 | chain 1 N35K | 0.228 µM | 0.806
80 | chain 1 N35D | ≥ 10 µM | 0.922
81 | chain 1 S30Q N35K | ≥ 10 µM | 0.304
82 | chain 1 F29P Y32I M34L | ≥ 10 µM | 0.858
83 | chain 1 Y32R W33M | ≥ 10 µM | 0.809
84 | chain 1 D31P W33F | ≥ 10 µM | 0.78
85 | chain 1 Y103V W108Y | 0.0011 µM | 0.619
86 | chain 1 M34G W36A | ≥ 10 µM | 1.01
87 | chain 1 S101Y D106E | ≥ 10 µM | 0.627
88 | chain 1 S30Y Y32S W33T | ≥ 10 µM | 0.934
89 | chain 1 M105F D106C | ≥ 10 µM | 1.03
90 | chain 1 W33N V37N | ≥ 10 µM | 0.652
91 | chain 1 G100R W108N | ≥ 10 µM | 0.348
92 | chain 1 Y103W G109S | ≥ 10 µM | 0.653
93 | chain 1 S101K Y103S | ≥ 10 µM | 0.461

Row | Variant | Kd (fluorescein) | yeast surface expression [1]
94 | chain 1 Y103V Y107M | ≥ 10 µM | 0.53
95 | chain 1 F29K M34Y | 0.00708 µM | 0.801
96 | chain 1 S101D G104H D106A | ≥ 10 µM | 0.353
97 | chain 1 Y32L N35F | ≥ 10 µM | 0.363
98 | chain 1 D31S Y32F | 0.018 µM | 0.876
99 | chain 1 D106V W108N | ≥ 10 µM | 0.371
100 | chain 1 S101D W108N | ≥ 10 µM | 0.445
101 | chain 1 G100D | ≥ 10 µM | 0.453
102 | chain 1 F29M V37Y | 7.72 µM | 1.04
103 | chain 1 W108T | 0.000399 µM | 0.775
104 | chain 1 G100Y D106I | ≥ 10 µM | 0.398
105 | chain 1 S30Y M34H | ≥ 10 µM | 0.38
106 | chain 1 D106W W108S | ≥ 10 µM | 0.325
107 | chain 1 F29T W36D | ≥ 10 µM | 0.484
108 | chain 1 F29P S30Y | 0.0221 µM | 0.751
109 | chain 1 D106F | ≥ 10 µM | 0.325
110 | chain 1 S101L Y103R | ≥ 10 µM | 0.702
111 | chain 1 T28Y N35Y | ≥ 10 µM | 0.86
112 | chain 1 M105T Y107C | ≥ 10 µM | 0.675
113 | chain 1 M105V W108A | ≥ 10 µM | 0.434
114 | chain 1 G104D Y107L | ≥ 10 µM | 1.18
115 | chain 1 Y103G Y107W | 0.0221 µM | 1.21
116 | chain 1 G100W Y103S | ≥ 10 µM | 0.463
